Laboratory results taken from patent US20080182978A1, “ANTI-NGF ANTIBODIES AND METHODS USING SAME” (RINAT NEUROSCIENCE CORP, priority 2002, published 2008).

Biological target: human NGF (Homo sapiens, UniProt P01138)
Assay: BIAcore affinity determination assay (kon, koff, KD of purified Fabs)
Format: binding
Conditions: higher affinity than 911
Description: Affinities of anti-NGF Fabs and monoclonal antibodies were determined using the BIAcore300™ surface plasmon resonance (SPR) system (BIAcore, INC, Piscaway N.J.). CM5 chips were activated with N-ethyl-N′-(3-dimethylaminopropyl)-carbodimide hydrochloride (EDC) and N-hydroxysuccinimide (NHS) according to the supplier's instructions. Human NGF was diluted into 10 mM sodium acetate pH 4.0 and injected over the activated chip at a concentration of 0.005 mg/mL. Using variable flow time across the individual chip channels, two ranges of antigen density were achieved: 100-200 response units (RU) for detailed kinetic studies and 500-600 RU for screening assays. The chip was blocked with ethanolamine. […] HBS-EP buffer (0.01M HEPES, pH 7.4, 0.15 NaCl, 3 mM EDTA, 0.005% Surfactant […]) was used as running buffer for all the BIAcore assays.
Serial dilutions (0.1-10× estimated KD) of purified Fab samples were injected for 1 min at 100 μL/min and dissociation times of up to 2 h were allowed. The concentrations of the Fab proteins were determined by ELISA and/or SDS-PAGE electrophoresis using as a standard a Fab of known concentration (as determined by amino acid analysis). Kinetic association rates (kon) and dissociation rates (koff) were obtained simultaneously by fitting the data to a 1:1 Langmuir binding model (Karlsson, R. Roos, H. Fagerstam, L. Petersson, B. (1994). Methods Enzymology 6. 99-110) using the BIAevaluation program. Equilibrium dissociation constant (KD) values were calculated as koff/kon.
The binding affinities to human NGF of Fabs E3 and 3C were measured using BIAcore analysis according to the manufacturer's instructions and as described above, except that 100 RU NGF was used on chip to prevent a rebinding effect. Briefly, several concentrations of antibodies (Fabs) were injected for 2 minutes onto a CM5 chip with 100 RU of immobilized human NGF on it, and permitted to dissociate for 1800 seconds. Mouse antibody 911 (Fab) was analyzed as a control. Data was analyzed using BIAevaluation software following the manufacturer's instructions. E3 bound human NGF with a KD of approximately 0.07 nM (and with a kon of about 6.0e5 M-1s-1, and a koff of about 4.2e-5s-1).

Sequence of human NGF (P01138 122-241): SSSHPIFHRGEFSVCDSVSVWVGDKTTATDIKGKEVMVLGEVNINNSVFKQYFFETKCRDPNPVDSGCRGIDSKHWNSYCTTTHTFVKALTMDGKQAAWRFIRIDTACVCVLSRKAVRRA

B1: E3: humanized, affinity matured anti-NGF antagonist antibody; variable regions SEQ ID NO:1 and 2; human IgG2a (A330P331 to S330S331), kappa (antibody, V domains shown)
VH: QVQLQESGPGLVKPSETLSLTCTVSGFSLIGYDLNWIRQPPGKGLEWIGIIWGDGTTDYNSAVKSRVTISKDTSKNQFSLKLSSVTAADTAVYYCARGGYWYATSYYFDYWGQGTLVTVS
VL: DIQMTQSPSSLSASVGDRVTITCRASQSISNNLNWYQQKPGKAPKLLIYYTSRFHSGVPSRFSGSGSGTDFTFTISSLQPEDIATYYCQQEHTLPYTFGQGTKLEIKRT
modifications: human IgG2a constant (A330S/P331S) and kappa constant missing
B1 was tested. Which “binding affinity to human NGF relative to parent mouse antibody 911” value did it give?
The value was “approximately 50 fold”.
